The values that follow come from publication PMC11405395 (The EMBO Journal, 2024).

Assay [1] addresses T1, Homo sapiens DNA polymerase ε (POLE1, POLE2, POLE3, POLE4) (human, UniProt Q07864 1-2286; P56282 1-527; Q9NRF9 1-147; Q9NR33 1-117).
T1 construct: POLE1 (catalytic subunit of DNA polymerase ε), human; POLE2 (homologue of budding yeast Dpb2), human (PolE2_tev_2XFLAG; tag removed with TEV protease); POLE3, human; POLE4, human; The methods call the removed tag 3FLAG, the strain and plasmid 2XFLAG; also called hsPOL ε; POL ε; source: S. cerevisiae strain ySP061, purified (anti-FLAG M2 resin, TEV cleavage, MonoQ, Superdex 200); not shown: …
In words: co-IP; purified proteins mixed: 10 nM RTEL1-FLAG with 15 nM hsPol ε, 10 min on ice; anti-FLAG M2 magnetic beads; 25 mM Hepes-KOH pH 7.6, 200 mM KOAc, 0.02% NP-40-S, 0.1 mg/mL BSA, 1 mM DTT, 10 mM Mg(OAc)2; immunoblotting. As to conditions: both partners purified. Background: Immunoblotting shows a protein as a band on a membrane.

For assay [2], the target named is T2, Homo sapiens CMG helicase (CDC45-MCM2-7-GINS) (human, UniProt P49736 1-904; P25205 1-808; P33991 1-863; P33992 1-734; Q14566 1-821; P33993 …).
T2 construct: MCM2, human, subunit of CMG; MCM3, human, subunit of CMG; MCM4, human, subunit of CMG; MCM5, human, subunit of CMG; MCM6, human, subunit of CMG; MCM7, human, subunit of CMG; CDC45, human, subunit of CMG; SLD5 (GINS4), human, GINS subunit of CMG (PrA-3TEV-HsSld5; eluted from IgG Sepharose with TEV protease); PSF1 (GINS1), human, GINS subunit of CMG; PSF2 (GINS2), human, GINS subunit of CMG; PSF3 …
The experiment in a line: co-IP; purified proteins mixed: 10 nM RTEL1-FLAG with 15 nM hsCMG, 10 min on ice; anti-FLAG M2 magnetic beads; 25 mM Hepes-KOH pH 7.6, 100 mM KOAc, 0.02% NP-40-S, 0.1 mg/mL BSA, 1 mM DTT, 10 mM Mg(OAc)2; immunoblotting. The note with it: both partners purified.

T1 sequence (Q07864 whole entry, chain 1 of 4): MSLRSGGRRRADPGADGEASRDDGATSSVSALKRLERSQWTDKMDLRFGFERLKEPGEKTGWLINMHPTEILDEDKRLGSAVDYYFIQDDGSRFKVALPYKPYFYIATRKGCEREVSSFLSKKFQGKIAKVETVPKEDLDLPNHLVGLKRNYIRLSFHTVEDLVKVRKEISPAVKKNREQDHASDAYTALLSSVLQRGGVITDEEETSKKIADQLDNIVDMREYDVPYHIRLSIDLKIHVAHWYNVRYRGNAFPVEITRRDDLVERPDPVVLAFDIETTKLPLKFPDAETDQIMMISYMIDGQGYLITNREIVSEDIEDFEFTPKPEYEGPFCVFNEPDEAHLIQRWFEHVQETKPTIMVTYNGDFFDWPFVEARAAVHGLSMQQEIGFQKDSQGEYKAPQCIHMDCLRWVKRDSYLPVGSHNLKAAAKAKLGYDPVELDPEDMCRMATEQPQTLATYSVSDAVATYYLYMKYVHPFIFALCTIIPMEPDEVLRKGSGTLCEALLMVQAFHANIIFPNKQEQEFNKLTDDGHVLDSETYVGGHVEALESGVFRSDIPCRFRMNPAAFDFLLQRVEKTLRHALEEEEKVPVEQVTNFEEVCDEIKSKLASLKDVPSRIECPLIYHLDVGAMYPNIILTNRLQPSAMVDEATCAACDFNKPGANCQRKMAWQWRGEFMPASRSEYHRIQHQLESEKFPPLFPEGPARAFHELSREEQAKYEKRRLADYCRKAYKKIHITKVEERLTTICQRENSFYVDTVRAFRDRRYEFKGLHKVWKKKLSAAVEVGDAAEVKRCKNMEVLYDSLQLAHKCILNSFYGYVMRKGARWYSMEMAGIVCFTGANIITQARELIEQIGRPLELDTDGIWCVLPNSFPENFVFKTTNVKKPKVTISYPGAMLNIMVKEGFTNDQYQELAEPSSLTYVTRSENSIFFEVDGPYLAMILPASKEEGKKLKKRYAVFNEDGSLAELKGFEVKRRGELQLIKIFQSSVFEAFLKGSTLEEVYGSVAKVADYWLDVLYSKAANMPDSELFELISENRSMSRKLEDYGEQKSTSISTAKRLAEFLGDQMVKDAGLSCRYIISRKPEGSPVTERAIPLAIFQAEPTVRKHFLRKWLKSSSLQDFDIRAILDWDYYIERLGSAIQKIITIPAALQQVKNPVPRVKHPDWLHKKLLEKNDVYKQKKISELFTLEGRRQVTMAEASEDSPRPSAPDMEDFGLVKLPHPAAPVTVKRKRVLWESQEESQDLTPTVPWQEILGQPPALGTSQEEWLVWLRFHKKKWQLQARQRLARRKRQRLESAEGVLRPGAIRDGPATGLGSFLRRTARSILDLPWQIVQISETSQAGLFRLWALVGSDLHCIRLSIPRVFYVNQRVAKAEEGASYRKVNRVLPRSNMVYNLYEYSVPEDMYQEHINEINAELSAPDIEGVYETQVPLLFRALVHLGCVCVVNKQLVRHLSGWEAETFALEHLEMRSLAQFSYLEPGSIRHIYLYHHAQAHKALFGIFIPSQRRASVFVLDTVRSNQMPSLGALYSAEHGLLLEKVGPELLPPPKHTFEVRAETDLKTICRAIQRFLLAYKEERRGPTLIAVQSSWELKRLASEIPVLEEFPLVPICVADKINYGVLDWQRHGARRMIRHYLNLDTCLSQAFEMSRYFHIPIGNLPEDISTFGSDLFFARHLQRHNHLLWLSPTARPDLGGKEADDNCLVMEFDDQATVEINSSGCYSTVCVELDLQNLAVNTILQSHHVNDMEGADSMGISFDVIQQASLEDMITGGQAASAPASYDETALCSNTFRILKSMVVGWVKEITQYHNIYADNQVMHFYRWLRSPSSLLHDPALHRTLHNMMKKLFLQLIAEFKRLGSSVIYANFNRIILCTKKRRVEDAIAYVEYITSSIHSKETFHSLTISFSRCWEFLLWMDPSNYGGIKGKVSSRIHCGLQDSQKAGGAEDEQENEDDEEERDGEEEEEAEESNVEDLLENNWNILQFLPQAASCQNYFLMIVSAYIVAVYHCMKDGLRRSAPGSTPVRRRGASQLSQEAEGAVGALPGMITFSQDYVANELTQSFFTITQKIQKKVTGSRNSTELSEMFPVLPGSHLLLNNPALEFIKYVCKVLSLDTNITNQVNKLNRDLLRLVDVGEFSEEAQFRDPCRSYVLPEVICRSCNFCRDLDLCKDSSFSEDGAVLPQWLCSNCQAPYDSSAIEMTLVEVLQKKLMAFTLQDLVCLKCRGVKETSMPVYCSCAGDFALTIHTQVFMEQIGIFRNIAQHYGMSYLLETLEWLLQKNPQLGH
T1 sequence (P56282 whole entry, chain 2 of 4): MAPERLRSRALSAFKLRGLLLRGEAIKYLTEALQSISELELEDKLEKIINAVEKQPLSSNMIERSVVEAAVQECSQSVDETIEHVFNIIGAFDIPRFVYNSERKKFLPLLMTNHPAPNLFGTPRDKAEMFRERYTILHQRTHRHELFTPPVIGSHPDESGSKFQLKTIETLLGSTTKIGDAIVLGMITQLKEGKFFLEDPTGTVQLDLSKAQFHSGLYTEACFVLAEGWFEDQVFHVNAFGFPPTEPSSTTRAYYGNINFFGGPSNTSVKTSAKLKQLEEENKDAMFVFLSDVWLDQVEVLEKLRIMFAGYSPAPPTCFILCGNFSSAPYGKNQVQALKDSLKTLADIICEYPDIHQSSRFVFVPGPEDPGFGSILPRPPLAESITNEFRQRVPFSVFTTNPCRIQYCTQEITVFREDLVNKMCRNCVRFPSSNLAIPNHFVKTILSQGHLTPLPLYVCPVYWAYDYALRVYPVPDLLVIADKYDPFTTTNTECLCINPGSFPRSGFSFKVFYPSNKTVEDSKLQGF
T1 sequence (Q9NRF9 whole entry, chain 3 of 4): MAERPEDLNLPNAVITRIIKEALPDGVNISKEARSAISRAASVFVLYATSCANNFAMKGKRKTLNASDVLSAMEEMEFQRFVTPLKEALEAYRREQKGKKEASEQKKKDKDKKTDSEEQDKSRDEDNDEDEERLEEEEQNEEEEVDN
T1 sequence (Q9NR33 whole entry, chain 4 of 4): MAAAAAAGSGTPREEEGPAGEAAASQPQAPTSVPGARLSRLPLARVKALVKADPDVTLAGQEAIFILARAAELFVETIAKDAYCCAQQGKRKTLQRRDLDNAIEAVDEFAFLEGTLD

B1: RTEL1ΔE813-E821 (enzyme, human, UniProt Q9NZ71-1 1-1219, looked up)
chain: MPKIVLNGVTVDFPFQPYKCQQEYMTKVLECLQQKVNGILESPTGTGKTLCLLCTTLAWREHLRDGISARKIAERAQGELFPDRALSSWGNAAAAAGDPIACYTDIPKIIYASRTHSQLTQVINELRNTSYRPKVCVLGSREQLCIHPEVKKQESNHLQIHLCRKKVASRSCHFYNNVEEKSLEQELASPILDIEDLVKSGSKHRVCPYYLSRNLKQQADIIFMPYNYLLDAKSRRAHNIDLKGTVVIFDEAHNVEKMCEESASFDLTPHDLASGLDVIDQVLEEQTKAAQQGEPHPEFSADSPSPGLNMELEDIAKLKMILLRLEGAIDAVELPGDDSGVTKPGSYIFELFAEAQITFQTKGCILDSLDQIIQHLAGRAGVFTNTAGLQKLADIIQIVFSVDPSEGSPGSPAGLGALQSYKVHIHPDAGHRRTAQRSDAWSTTAARKRGKVLSYWCFSPGHSMHELVRQGVRSLILTSGTLAPVSSFALEMQIPFPVCLENPHIIDKHQIWVGVVPRGPDGAQLSSAFDRRFSEECLSSLGKALGNIARVVPYGLLIFFPSYPVMEKSLEFWRARDLARKMEALKPLFVEPRSKGSFSETISAYYARVAAPGSTGATFLAVCRGKASEGLDFSDTNGRGVIVTGLPYPPRMDPRVVLKMQFLDEMKGQGGAGGQFLSGQEWYRQQASRAVNQAIGRVIRHRQDYGAVFLCDHRFAFADARAQLPSWVRPHVRVYDNFGHVIRDVAQFFRVAERTMPAPAPRATAPSVRGEDAVSEAKSPGPFFSTRKAKSLDLHVPSLKQRSSGSPAAGDPQEPVPARQRPRGLLAALEHSEQRAGSPGEEQAHSCSTLSLLSEKRPAEEPRGGRKKIRLVSHPEEPVAGAQTDRAKLFMVAVKQELSQANFATFTQALQDYKGSDDFAALAACLGPLFAEDPKKHNLLQGFYQFVRPHHKQQFEEVCIQLTGRGCGYRPEHSIPRRQRAQPVLDPTGRTAPDPKLTVSTAAAQQLDPQEHLNQGRPHLSPRPPPTGDPGSQPQWGSGVPRAGKQGQHAVSAYLADARRALGSAGCSQLLAALTAYKQDDDLDKVLAVLAALTTAKPEDFPLLHRFSMFVRPHHKQRFSQTCTDLTGRPYPGMEPPGPQEERLAVPPVLTHRAPQPGPSRSEKTGKTQSKISSFLRQRPAGTVGAGGEDAGPSQSSGPPHGPAASEWGL
notes: Plasmid pSP51; also called hsRTEL1ΔE813-E821; source: S. cerevisiae strain ySP075, purified (anti-FLAG M2 resin, HiLoad Superdex 200); not shown: 2XFLAG, C-terminal, kept
Turning to B1, the binding result in assay [1] and in assay [2] was “binds” throughout.

B2: RTEL1 ΔE813-E821 ΔR875-V881 (enzyme, human, UniProt Q9NZ71-1 1-1219, looked up)
chain: MPKIVLNGVTVDFPFQPYKCQQEYMTKVLECLQQKVNGILESPTGTGKTLCLLCTTLAWREHLRDGISARKIAERAQGELFPDRALSSWGNAAAAAGDPIACYTDIPKIIYASRTHSQLTQVINELRNTSYRPKVCVLGSREQLCIHPEVKKQESNHLQIHLCRKKVASRSCHFYNNVEEKSLEQELASPILDIEDLVKSGSKHRVCPYYLSRNLKQQADIIFMPYNYLLDAKSRRAHNIDLKGTVVIFDEAHNVEKMCEESASFDLTPHDLASGLDVIDQVLEEQTKAAQQGEPHPEFSADSPSPGLNMELEDIAKLKMILLRLEGAIDAVELPGDDSGVTKPGSYIFELFAEAQITFQTKGCILDSLDQIIQHLAGRAGVFTNTAGLQKLADIIQIVFSVDPSEGSPGSPAGLGALQSYKVHIHPDAGHRRTAQRSDAWSTTAARKRGKVLSYWCFSPGHSMHELVRQGVRSLILTSGTLAPVSSFALEMQIPFPVCLENPHIIDKHQIWVGVVPRGPDGAQLSSAFDRRFSEECLSSLGKALGNIARVVPYGLLIFFPSYPVMEKSLEFWRARDLARKMEALKPLFVEPRSKGSFSETISAYYARVAAPGSTGATFLAVCRGKASEGLDFSDTNGRGVIVTGLPYPPRMDPRVVLKMQFLDEMKGQGGAGGQFLSGQEWYRQQASRAVNQAIGRVIRHRQDYGAVFLCDHRFAFADARAQLPSWVRPHVRVYDNFGHVIRDVAQFFRVAERTMPAPAPRATAPSVRGEDAVSEAKSPGPFFSTRKAKSLDLHVPSLKQRSSGSPAAGDPQEPVPARQRPRGLLAALEHSEQRAGSPGEEQAHSCSTLSLLSEKRPAEEPRGGSHPEEPVAGAQTDRAKLFMVAVKQELSQANFATFTQALQDYKGSDDFAALAACLGPLFAEDPKKHNLLQGFYQFVRPHHKQQFEEVCIQLTGRGCGYRPEHSIPRRQRAQPVLDPTGRTAPDPKLTVSTAAAQQLDPQEHLNQGRPHLSPRPPPTGDPGSQPQWGSGVPRAGKQGQHAVSAYLADARRALGSAGCSQLLAALTAYKQDDDLDKVLAVLAALTTAKPEDFPLLHRFSMFVRPHHKQRFSQTCTDLTGRPYPGMEPPGPQEERLAVPPVLTHRAPQPGPSRSEKTGKTQSKISSFLRQRPAGTVGAGGEDAGPSQSSGPPHGPAASEWGL
notes: Plasmid pSP53; also called hsRTEL1ΔE813-E821 ΔR875-V881; source: S. cerevisiae strain ySP070, purified (anti-FLAG M2 resin, HiLoad Superdex 200); not shown: 2XFLAG, C-terminal, kept
With B2, in assay [1], the binding result is on record as “binds”.

B3: RTEL1ΔL834-G846 (enzyme, human, UniProt Q9NZ71-1 1-1219, looked up)
chain: MPKIVLNGVTVDFPFQPYKCQQEYMTKVLECLQQKVNGILESPTGTGKTLCLLCTTLAWREHLRDGISARKIAERAQGELFPDRALSSWGNAAAAAGDPIACYTDIPKIIYASRTHSQLTQVINELRNTSYRPKVCVLGSREQLCIHPEVKKQESNHLQIHLCRKKVASRSCHFYNNVEEKSLEQELASPILDIEDLVKSGSKHRVCPYYLSRNLKQQADIIFMPYNYLLDAKSRRAHNIDLKGTVVIFDEAHNVEKMCEESASFDLTPHDLASGLDVIDQVLEEQTKAAQQGEPHPEFSADSPSPGLNMELEDIAKLKMILLRLEGAIDAVELPGDDSGVTKPGSYIFELFAEAQITFQTKGCILDSLDQIIQHLAGRAGVFTNTAGLQKLADIIQIVFSVDPSEGSPGSPAGLGALQSYKVHIHPDAGHRRTAQRSDAWSTTAARKRGKVLSYWCFSPGHSMHELVRQGVRSLILTSGTLAPVSSFALEMQIPFPVCLENPHIIDKHQIWVGVVPRGPDGAQLSSAFDRRFSEECLSSLGKALGNIARVVPYGLLIFFPSYPVMEKSLEFWRARDLARKMEALKPLFVEPRSKGSFSETISAYYARVAAPGSTGATFLAVCRGKASEGLDFSDTNGRGVIVTGLPYPPRMDPRVVLKMQFLDEMKGQGGAGGQFLSGQEWYRQQASRAVNQAIGRVIRHRQDYGAVFLCDHRFAFADARAQLPSWVRPHVRVYDNFGHVIRDVAQFFRVAERTMPAPAPRATAPSVRGEDAVSEAKSPGPFFSTRKAKSLDLHVPSLKQRSSGSPAAGDPESSLCVEYEQEPVPARQRPRGSPGEEQAHSCSTLSLLSEKRPAEEPRGGRKKIRLVSHPEEPVAGAQTDRAKLFMVAVKQELSQANFATFTQALQDYKGSDDFAALAACLGPLFAEDPKKHNLLQGFYQFVRPHHKQQFEEVCIQLTGRGCGYRPEHSIPRRQRAQPVLDPTGRTAPDPKLTVSTAAAQQLDPQEHLNQGRPHLSPRPPPTGDPGSQPQWGSGVPRAGKQGQHAVSAYLADARRALGSAGCSQLLAALTAYKQDDDLDKVLAVLAALTTAKPEDFPLLHRFSMFVRPHHKQRFSQTCTDLTGRPYPGMEPPGPQEERLAVPPVLTHRAPQPGPSRSEKTGKTQSKISSFLRQRPAGTVGAGGEDAGPSQSSGPPHGPAASEWGL
notes: Plasmid pSP48; also called hsRTEL1ΔL834-G846; source: S. cerevisiae strain ySP072, purified (anti-FLAG M2 resin, HiLoad Superdex 200); not shown: 2XFLAG, C-terminal, kept
On to B3, for which the binding result in assay [2] is reported as “binds”.

B4: RTEL1ΔR875-V881 (enzyme, human, UniProt Q9NZ71-1 1-1219, looked up)
chain: MPKIVLNGVTVDFPFQPYKCQQEYMTKVLECLQQKVNGILESPTGTGKTLCLLCTTLAWREHLRDGISARKIAERAQGELFPDRALSSWGNAAAAAGDPIACYTDIPKIIYASRTHSQLTQVINELRNTSYRPKVCVLGSREQLCIHPEVKKQESNHLQIHLCRKKVASRSCHFYNNVEEKSLEQELASPILDIEDLVKSGSKHRVCPYYLSRNLKQQADIIFMPYNYLLDAKSRRAHNIDLKGTVVIFDEAHNVEKMCEESASFDLTPHDLASGLDVIDQVLEEQTKAAQQGEPHPEFSADSPSPGLNMELEDIAKLKMILLRLEGAIDAVELPGDDSGVTKPGSYIFELFAEAQITFQTKGCILDSLDQIIQHLAGRAGVFTNTAGLQKLADIIQIVFSVDPSEGSPGSPAGLGALQSYKVHIHPDAGHRRTAQRSDAWSTTAARKRGKVLSYWCFSPGHSMHELVRQGVRSLILTSGTLAPVSSFALEMQIPFPVCLENPHIIDKHQIWVGVVPRGPDGAQLSSAFDRRFSEECLSSLGKALGNIARVVPYGLLIFFPSYPVMEKSLEFWRARDLARKMEALKPLFVEPRSKGSFSETISAYYARVAAPGSTGATFLAVCRGKASEGLDFSDTNGRGVIVTGLPYPPRMDPRVVLKMQFLDEMKGQGGAGGQFLSGQEWYRQQASRAVNQAIGRVIRHRQDYGAVFLCDHRFAFADARAQLPSWVRPHVRVYDNFGHVIRDVAQFFRVAERTMPAPAPRATAPSVRGEDAVSEAKSPGPFFSTRKAKSLDLHVPSLKQRSSGSPAAGDPESSLCVEYEQEPVPARQRPRGLLAALEHSEQRAGSPGEEQAHSCSTLSLLSEKRPAEEPRGGSHPEEPVAGAQTDRAKLFMVAVKQELSQANFATFTQALQDYKGSDDFAALAACLGPLFAEDPKKHNLLQGFYQFVRPHHKQQFEEVCIQLTGRGCGYRPEHSIPRRQRAQPVLDPTGRTAPDPKLTVSTAAAQQLDPQEHLNQGRPHLSPRPPPTGDPGSQPQWGSGVPRAGKQGQHAVSAYLADARRALGSAGCSQLLAALTAYKQDDDLDKVLAVLAALTTAKPEDFPLLHRFSMFVRPHHKQRFSQTCTDLTGRPYPGMEPPGPQEERLAVPPVLTHRAPQPGPSRSEKTGKTQSKISSFLRQRPAGTVGAGGEDAGPSQSSGPPHGPAASEWGL
notes: Plasmid pSP52; also called hsRTEL1ΔR875-V881; source: S. cerevisiae strain ySP076, purified (anti-FLAG M2 resin, HiLoad Superdex 200); not shown: 2XFLAG, C-terminal, kept
With B4, the binding result in assay [1] is “binds”.
